The values below come from patent US20110142842A1 (MEDINNOVA, published 2011).

The target of the assay is HLA-A*0201 (human, UniProt A*02:01). In words: REVEAL MHC binding assay (ProImmune).
Take KLGGDLLRA [Peptide ID 129 KLGGDLLRA (CD18)]: the “% Pass/fail control” value is 229 % of pass/fail control.

For the molecule LLSGFFFFA [Peptide ID 29 LLSGFFFFA (CD11a)], the “% Pass/fail control” value was 210 % of pass/fail control.

With LLIPAGIYV (Modified peptide) [Peptide ID 136 LLIPAGIYV (CD20, modified peptide)], the “% Pass/fail control” value is 275 % of pass/fail control.

Turning to VLAEASASQ [Peptide ID 125 VLAEASASQ (FLT3)], the “% Pass/fail control” value is 103 % of pass/fail control.

SLYGPGSYL [Peptide ID 15 SLYGPGSYL (HA-1)]: the “% Pass/fail control” value is 198 % of pass/fail control.

LLFLTPMEV [Peptide ID 108 LLFLTPMEV (CD19)]: the “% Pass/fail control” value is 283 % of pass/fail control.

In the case of VLDIYGFEV [Peptide ID 18 VLDIYGFEV (HA-2)], the “% Pass/fail control” value is 161 % of pass/fail control.

As to ALARGLPGV (Modified peptide) [Peptide ID 143 ALARGLPGV (CD7, modified peptide)], the “% Pass/fail control” value is 297 % of pass/fail control.

YLMDLSYSV (Modified peptide) [Peptide ID 134 YLMDLSYSV (CD18, modified peptide)]: the “% Pass/fail control” value is 242 % of pass/fail control.

As to SLAQVVMKV [Peptide ID 20 SLAQVVMKV (CD11a)], the “% Pass/fail control” value is 155 % of pass/fail control.

With KLSLGLPGL [Peptide ID 118 KLSLGLPGL (CD19)], the “% Pass/fail control” value is 209 % of pass/fail control.

For the molecule LLQPFMFRV (Modified peptide) [Peptide ID 135 LLQPFMFRV (MPO, modified peptide)], the “% Pass/fail control” value is 329 % of pass/fail control.

As to WMGGVSEPL [Peptide ID 116 WMGGVSEPL (MPO)], the “% Pass/fail control” value is 199 % of pass/fail control.

LLFIVVLTL [Peptide ID 119 LLFIVVLTL (FLT3)]: the “% Pass/fail control” value was 114 % of pass/fail control.

Turning to ALAGVLAIL [Peptide ID 30 ALAGVLAIL (MPO)], the “% Pass/fail control” value is 210 % of pass/fail control.

With ALPAALAVI [Peptide ID 127 ALPAALAVI (CD7)], the “% Pass/fail control” value was 264 % of pass/fail control.

With ILFAFVSSV [Peptide ID 25 ILFAFVSSV (FLT3)], the “% Pass/fail control” value is 221 % of pass/fail control.

As for LLLSGAARV (Modified peptide) [Peptide ID 138 LLLSGAARV (PR3, modified peptide)], the “% Pass/fail control” value is 210 % of pass/fail control.

Regarding ILLWEIFSL [Peptide ID 3 ILLWEIFSL (FLT3)], the “% Pass/fail control” value was 199 % of pass/fail control.

As to SLSEEVTYV (Modified peptide) [Peptide ID 145 SLSEEVTYV (CLL-1, modified peptide)], the “% Pass/fail control” value is 191 % of pass/fail control.

LLLREHNRL [Peptide ID 113 LLLREHNRL (MPO)]: the “% Pass/fail control” value was 195 % of pass/fail control.

Turning to ELDEELHYV (Modified peptide) [Peptide ID 137 ELDEELHYV (CD33, modified peptide)], the “% Pass/fail control” value is 218 % of pass/fail control.

With YLHVALDLL [Peptide ID 107 YLHVALDLL (MPO)], the “% Pass/fail control” value was 278 % of pass/fail control.

On to SMFHVTLKI [Peptide ID 128 SMFHVTLKI (CLL-1)], for which the “% Pass/fail control” value was 307 % of pass/fail control.

FLQDTFPQV (Modified peptide) [Peptide ID 132 FLQDTFPQV (CD127, modified peptide)]: the “% Pass/fail control” value is 216 % of pass/fail control.

For LLMSFFILL [Peptide ID 27 LLMSFFILL (CD53)], the “% Pass/fail control” value is 189 % of pass/fail control.

As for SLFAAISGM [Peptide ID 124 SLFAAISGM (CD20)], the “% Pass/fail control” value is 203 % of pass/fail control.

With FLQPLFLVV (Modified peptide) [Peptide ID 141 FLQPLFLVV (HA-1, modified peptide)], the “% Pass/fail control” value was 270 % of pass/fail control.

Consider ILYPINILV (Modified peptide) [Peptide ID 149 ILYPINILV (CD11a, modified peptide)], for which the “% Pass/fail control” value is 321 % of pass/fail control.

For the molecule SLHSETWEI [Peptide ID 32 SLHSETWEI (CD11a)], the “% Pass/fail control” value is 179 % of pass/fail control.

Consider SLFLGILSV (also called peptide #19; pep 19) [Peptide ID 19 SLFLGILSV (CD20)], for which the “% Pass/fail control” value is 160 % of pass/fail control.

Consider YLRPGQAAV (Modified peptide) [Peptide ID 144 YLRPGQAAV (CD18, modified peptide)], for which the “% Pass/fail control” value is 227 % of pass/fail control.

With LLDPKLCYL [Peptide ID 13 LLDPKLCYL (TCR_TV)], the “% Pass/fail control” value was 204 % of pass/fail control.

For GLYQGLSTV (Modified peptide) [Peptide ID 140 GLYQGLSTV (TCR_TV, modified peptide)], the “% Pass/fail control” value was 214 % of pass/fail control.

On to HMRPLAIWL [Peptide ID 106 HMRPLAIWL (CD19)], for which the “% Pass/fail control” value was 56.2 % of pass/fail control.

In the case of PLWGGIMYI [Peptide ID 10 PLWGGIMYI (CD20)], the “% Pass/fail control” value is 155 % of pass/fail control.

For the molecule SMLDDLRNV [Peptide ID 24 SMLDDLRNV (CD18)], the “% Pass/fail control” value is 251 % of pass/fail control.

For LLAEVTLAV (Modified peptide) [Peptide ID 147 LLAEVTLAV (CD53, modified peptide)], the “% Pass/fail control” value was 254 % of pass/fail control.

On to VIVGSIIMV [Peptide ID 110 VIVGSIIMV (CD53)], for which the “% Pass/fail control” value is 113 % of pass/fail control.

As to YLMDLSYSM [Peptide ID 21 YLMDLSYSM (CD18)], the “% Pass/fail control” value is 198 % of pass/fail control.

On to LLWAGALAV (Modified peptide) [Peptide ID 148 LLWAGALAV (CD33, modified peptide)], for which the “% Pass/fail control” value was 272 % of pass/fail control.

With FLVNTVLWV [Peptide ID 12 FLVNTVLWV (CD64)], the “% Pass/fail control” value is 133 % of pass/fail control.

For the molecule ALAVISFLL [Peptide ID 114 ALAVISFLL (CD7)], the “% Pass/fail control” value is 221 % of pass/fail control.

With KLFTSVFGV [Peptide ID 31 KLFTSVFGV (TdT)], the “% Pass/fail control” value was 200 % of pass/fail control.

On to SLTLGNVFV [Peptide ID 122 SLTLGNVFV (CD53)], for which the “% Pass/fail control” value is 150 % of pass/fail control.

Turning to RLLFFLLFL [Peptide ID 112 RLLFFLLFL (CD19)], the “% Pass/fail control” value is 42.3 % of pass/fail control.

On to LLMVFVALL [Peptide ID 121 LLMVFVALL (CD2)], for which the “% Pass/fail control” value was 114 % of pass/fail control.

For FLPDAFVTV (Modified peptide) [Peptide ID 133 FLPDAFVTV (TdT, modified peptide)], the “% Pass/fail control” value was 204 % of pass/fail control.

As for FVANAIIHL [Peptide ID 111 FVANAIIHL (CD52)], the “% Pass/fail control” value is 276 % of pass/fail control.

Consider TLQPPWVSV [Peptide ID 26 TLQPPWVSV (CD64)], for which the “% Pass/fail control” value was 197 % of pass/fail control.

For the molecule KIVEWDWKI [Peptide ID 109 KIVEWDWKI (CD48)], the “% Pass/fail control” value was 236 % of pass/fail control.

Turning to LLAPRFLEV (Modified peptide) [Peptide ID 142 LLAPRFLEV (CD50, modified peptide)], the “% Pass/fail control” value is 218 % of pass/fail control.

ALYDKTKRI [Peptide ID 115 ALYDKTKRI (TdT_TV2)]: the “% Pass/fail control” value was 260 % of pass/fail control.

In the case of ELLDVSWLV (Modified peptide) [Peptide ID 150 ELLDVSWLV (TdT, modified peptide)], the “% Pass/fail control” value is 239 % of pass/fail control.

In the case of FLPDAFVTM [Peptide ID 16 FLPDAFVTM (TdT)], the “% Pass/fail control” value was 164 % of pass/fail control.

As to GLADVAVGV (Modified peptide) [Peptide ID 146 GLADVAVGV (CD11a, modified peptide)], the “% Pass/fail control” value was 213 % of pass/fail control.

On to ILLLVIWKA [Peptide ID 130 ILLLVIWKA (CD18)], for which the “% Pass/fail control” value is 56.7 % of pass/fail control.

As for TVQEGLCVL [Peptide ID 123 TVQEGLCVL (CD33)], the “% Pass/fail control” value was 75.2 % of pass/fail control.

VLWHWLLRT [Peptide ID 105 VLWHWLLRT (CD19)]: the “% Pass/fail control” value was 337 % of pass/fail control.

Consider YLKDGWHMV [Peptide ID 2 YLKDGWHMV (CD5)], for which the “% Pass/fail control” value is 182 % of pass/fail control.

In the case of VMNGTDPEL [Peptide ID 120 VMNGTDPEL (CD2)], the “% Pass/fail control” value is 200 % of pass/fail control.

With YLLDGILFI [Peptide ID 1 YLLDGILFI (TCR_TV)], the “% Pass/fail control” value is 201 % of pass/fail control.

On to RLYENRASL [Peptide ID 23 RLYENRASL (HA-1)], for which the “% Pass/fail control” value was 266 % of pass/fail control.

For SLQSGILTL [Peptide ID 11 SLQSGILTL (CD127)], the “% Pass/fail control” value is 181 % of pass/fail control.

As for LLLPLLLAL [Peptide ID 28 LLLPLLLAL (CD7)], the “% Pass/fail control” value is 253 % of pass/fail control.

As to LLQRPGLQL [Peptide ID 126 LLQRPGLQL (CD64)], the “% Pass/fail control” value is 231 % of pass/fail control.

For YLLRVIETL [Peptide ID 14 YLLRVIETL (HA-1)], the “% Pass/fail control” value is 179 % of pass/fail control.

As for SLWRRPFNV [Peptide ID 22 SLWRRPFNV (MPO)], the “% Pass/fail control” value is 301 % of pass/fail control.

Consider CMAGARVQV [Peptide ID 117 CMAGARVQV (CD50)], for which the “% Pass/fail control” value is 158 % of pass/fail control.
